Source: PMC5485733, “An Amyloidogenic Sequence at the N-Terminus of the Androgen Receptor Impacts Polyglutamine Aggregation” (Biomolecules, 2017)

Molecular target: the molecule itself
Assay: SEC + other: mass spectrometry; HiLoad 16/60 Superdex 75, 20 mM sodium phosphate pH 6.5, 150 mM NaCl, with or without 2 mM DTT; dimer fraction decreased with DTT; fractions identified by mass spectrometry; monomer to covalent dimer

B1: His-SUMO-peptide fusion protein (SUMO_SAPKELCKAVSVSM) (domain or fragment, human)
chain: SAPKELCKAVSVSM
notes: three amino acids Ser-Ala-Pro linker inserted between the SUMO tag and the peptide; The peptide is the C-terminus of the chain (stop codon after it); The dimer is covalent; Printed mass 15,819 (printed as kDa); source: E. coli Rosetta (DE3), purified (Ni-NTA agarose, SEC); not shown: His, N-terminal, kept; SUMO, N-terminal, kept
stoichiometry N: 2
